Experimental findings from patent US20110136733A1 (IPSEN PHARMA S A S, published 2011) are described below.

Where no end group is shown, it is not given here. [ ]: non-standard residue; d: D form. The star is where a group is joined. Psu = N-propylsuccinimide on the Cys sulfur (from N-propylmaleimide), CCCN1C(=O)CC(*)C1=O; Ac6c = NC1(C(=O)O)CCCCC1; Nle = CCCC[C@H](N)C(=O)O; Aib = CC(C)(N)C(=O)O

To fix the notation:
T1: human recombinant GIP receptor (human, UniProt P48546 22-466)
T1 construct: whole, on cells; Membranes of CHO-K1 cells expressing the receptor; also called hGIP receptor
T1 sequence (looked up): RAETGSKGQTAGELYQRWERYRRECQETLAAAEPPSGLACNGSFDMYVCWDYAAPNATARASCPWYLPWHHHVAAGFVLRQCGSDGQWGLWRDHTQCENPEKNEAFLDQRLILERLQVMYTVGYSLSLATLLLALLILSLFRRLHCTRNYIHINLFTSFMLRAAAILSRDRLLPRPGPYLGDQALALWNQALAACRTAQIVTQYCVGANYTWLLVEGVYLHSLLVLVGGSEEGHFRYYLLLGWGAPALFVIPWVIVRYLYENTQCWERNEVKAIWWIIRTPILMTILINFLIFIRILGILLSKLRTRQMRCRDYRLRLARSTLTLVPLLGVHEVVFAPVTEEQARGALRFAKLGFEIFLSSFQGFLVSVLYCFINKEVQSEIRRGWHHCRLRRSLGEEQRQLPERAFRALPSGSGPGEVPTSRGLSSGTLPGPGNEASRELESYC

In this assay the target is T1, human recombinant GIP receptor. Nature of the assay: [125I]GIP competition, membranes of CHO-K1 cells expressing human GIP receptor.
In general, Ki refers to the equilibrium dissociation constant of an inhibitor or competing ligand from its target. In the case of “(Pro^3, A5c^11, Nle^14)hGIP(1-30)-OH (peptide)”, the Ki was 86.8 nM. For YXEGTFXSDYSIAXDKIHQQDFVNWLLAQK (Aib at 2; A5c at 7 and 14; C-terminal amide) [(Aib^2, A5c^7, 14)hGIP(1-30)-NH2] the value was 2.32 nM; for Y[Aib]EGTF[Ac6c]SDYSIA[Nle]DKIHQQDFVNWLLAQKGKKNDWKHN[Ac6c]TQ-OH [(Aib^2, A6c^7, 40, Nle^14)hGIP(1-42)-OH], 1.09 nM; for YXEGTFIXDYSIAMDKIHQQDFVNWLLAQKGKKNDWKHNITQ (Aib at 2 and 8; C-terminal free acid) [(Aib^2, 8)hGIP(1-42)-OH], 16.2 nM.

On to YXEGTFISXYSIAMDKIHQQDFVNWLLAQKGKKNDWKHNITQ (Aib at 2 and 9; C-terminal free acid) [(Aib^2, 9)hGIP(1-42)-OH], for which the Ki turned out to be 2.66 nM. For YXEGTFXSDYSIAXDKIHQQDFVNWLLAQKXKKNDWKHNITQ (Aib at 2 and 31; A6c at 7; Nle at 14; C-terminal free acid) [(Aib^2, 31, A6c^7, Nle^14)hGIP(1-42)-OH] the value was 2.06 nM. For YXEGTFXSDYSIAXDKXHQQDFVNWLLAQKGKKNDWKHNITQ (Aib at 2; A6c at 7 and 17; Nle at 14; C-terminal free acid) [(Aib^2, A6c^7, 17, Nle^14)hGIP(1-42)-OH] the value was 1.06 nM. Turning to YXEGTFXSDYSIXXDKIHQQDFVNWLLAQKGKKNDWKHNITQ (Aib at 2 and 13; A6c at 7; Nle at 14; C-terminal free acid) [(Aib^2, 13, A6c^7, Nle^14)hGIP(1-42)-OH], the Ki amounted to 0.3 nM. Turning to YXEGTFXSDYSIAMDKIHQQDFVNWLLAQKXKKNDWKHNITQ (Aib at 2 and 31; A6c at 7; C-terminal free acid) [(Aib^2, 31, A6c^7)hGIP(1-42)-OH], the inhibition constant Ki stood at 6.96 nM.

Consider YXEGTFXSDYSIAXDKIHQQDFVNWLXAQKGKKNDWKHNITQ (Aib at 2; A6c at 7 and 27; Nle at 14; C-terminal free acid) [(Aib^2, A6c^7, 27, Nle^14)hGIP(1-42)-OH], for which the Ki came out at 121 nM. Regarding YXEGTFISDYXIAMDKIHQQDFVNWLLAQKGKKNDWKHNITQ (Aib at 2 and 11; C-terminal free acid) [(Aib^2, 11)hGIP(1-42)-OH], the Ki came to 1.2 nM. For YXEGTFXSDYSIAXDKIHQQDFVNWXLAQKGKKNDWKHNITQ (Aib at 2; A6c at 7 and 26; Nle at 14; C-terminal free acid) [(Aib^2, A6c^7, 26, Nle^14)hGIP(1-42)-OH] the value was 2.54 nM; for YXEGTFISDYXIAXDKIHQQDFVNWLLAQK (Aib at 2 and 11; A6c at 14; C-terminal amide) [(Aib^2, 11, A6c^14)hGIP(1-30)-NH2], 0.73 nM; for YAEGTFISDYXIAMDKIHQQDFVNWLLAQKH (D-Ala at 2; A5c at 11; C-terminal amide, X stands for the non-natural residue) [(D-Ala^2, A5c^11, His^31)hGIP(1-31)-NH2], 0.87 nM. For the molecule Y[Aib]E[Aib]TFISDYSIAMDKIHQQDFVNWLLAQKGKKNDWKHNITQ-OH [(Aib^2, 4)hGIP(1-42)-OH], the Ki worked out at 80.1 nM. For YXEGXFISDYSIAMDKIHQQDFVNWLLAQK (Aib at 2; A5c at 5; C-terminal amide) [(Aib^2, A5c^5)hGIP(1-30)-NH2] the value was 2.05 nM; for YXEGXFISDYSIAMDKIHQQDFVNWLLAQK (Aib at 2 and 5; C-terminal amide) [(Aib^2, 5)hGIP(1-30)-NH2], 3.33 nM. For YXEGTFISDYXIAMDKIHQQDFVNWLLAQK (Aib at 2 and 11; C-terminal amide) [(Aib^2, 11)hGIP(1-30)-NH2] the value was 0.37 nM; for YXPGTFISDYXIAMDKIHQQDFVNWLLAQK (Aib at 2; A5c at 11; C-terminal amide) [(Aib^2, Pro^3, A5c^11)hGIP(1-30)-NH2], 216 nM; for YXEGTFIXDYSIAMDKIHQQDFVNWLLAQK (Aib at 2 and 8; C-terminal amide) [(Aib^2, 8)hGIP(1-30)-NH2], 15.9 nM.

Turning to Y[Aib]EGTF[Ac6c]SDYSIA[Nle]DKIHQQDFVNWLL[Aib]QKGKKNDWKHNITQ-OH [(Aib^2, 28, A6c^7, Nle^14)hGIP(1-42)-OH], the Ki stood at 1.22 nM. For YXEGTFXSDYSIAXDKIHQQDFVNWLLAQK (A6c at 2 and 7; Nle at 14; C-terminal amide) [(A6c^2, 7, Nle^14)hGIP(1-30)-NH2] the value was 47 nM. For YXEGTFISDYSXAMDKIHQQDFVNWLLAQK (Aib at 2 and 12; C-terminal amide) [(Aib^2, 12)hGIP(1-30)-NH2] the value was 1.84 nM; for YXEGTFXSDYSIAXDKIHQQDFVNWLLAQK (A5c at 2 and 7; Nle at 14; C-terminal amide) [(A5c^2, 7, Nle^14)hGIP(1-30)-NH2], 25.8 nM; for YGEGTFISDYXIAXDKIHQQDFVNWLLAQKGKKNDWKHNITQH (A5c at 11; Nle at 14; C-terminal free acid) [(Gly^2, A5c^11, Nle^14, His^43)hGIP(1-43)-OH], 0.87 nM. On to YXEGTFISDYXIAXDKIHQQDFVNWLLAQKGKKNDWKHNITQH (Aib at 2; A5c at 11 and 14; C-terminal free acid) [(Aib^2, A5c^11,14, His^43)hGIP(1-43)-OH], for which the Ki was found to be 0.55 nM. On to YAEGTFISDYXIAXDKIHQQDFVNWLLAQKGKKNDWKHNITQH (D-Ala at 2; A5c at 11; Nle at 14; C-terminal free acid, X stands for the non-natural residue) [(D-Ala^2, A5c^11, Nle^14, His^43)hGIP(1-43)-OH], for which the Ki stood at 0.66 nM. As for YXEGTFXSDYSIAXDKIHQQDFVNWLLAQK (Aib at 2; A6c at 7; Nle at 14; C-terminal amide) [(Aib^2, A6c^7, Nle^14)hGIP(1-30)-NH2], the Ki came out at 1.04 nM. Consider YAPGTFISDYXIAXDKIHQQDFVNWLLAQK (A5c at 11; A6c at 14; C-terminal amide) [(Pro^3, A5c^11, A6c^14)hGIP(1-30)-NH2], for which the Ki came to 871 nM. For YAEGTFISDYXIAXDKIHQQDFVNWLLAQK (D-Ala at 2; A5c at 11 and 14; C-terminal amide, X stands for the non-natural residue) [(D-Ala^2, A5c^11, 14)hGIP(1-30)-NH2] the value was 0.46 nM. For Y[Aib]EGTF[Ac6c]SDYSIA[Nle]DKIHQQDFVNWLLAQKGKKNDWKHNI[Ac6c]Q-OH [(Aib^2, A6c^7, 41, Nle^14)hGIP(1-42)-OH] the value was 1.17 nM; for YXEGTFXSDYSIAMDKIHQQDFVNWLLAQK (Aib at 2 and 7; C-terminal amide) [(Aib^2, 7)hGIP(1-30)-NH2], 0.53 nM. For Y[Aib]EGTF[Ac6c]SDYSIAMDKIHQQDFVNWLLAQKGKKNDWKHNI[Aib]Q-OH [(Aib^2, 41, A6c^7)hGIP(1-42)-OH] the value was 0.87 nM; for YXEGTFXSDYSIAMDKIHQQDFVNWLLAQK (Aib at 2; A5c at 7; C-terminal amide) [(Aib^2, A5c^7)hGIP(1-30)-NH2], 0.27 nM; for YXPGTFXSDYSIAMDKIHQQDFVNWLLAQK (Aib at 2; A6c at 7; C-terminal amide) [(Aib^2, Pro^3, A6c^7)hGIP(1-30)-NH2], 333 nM. On to Y[Aib]EGTF[Ac6c]SDYSIA[Nle]DKIHQQDFVNWLLAQKGKKNDWKHNI[Aib]Q-OH [(Aib^2, 41, A6c^7, Nle^14)hGIP(1-42)-OH], for which the Ki was determined as 1.33 nM. In the case of YXEGTFISDYSXAMDKIHQQDFVNWLLAQK (Aib at 2; A5c at 12; C-terminal amide) [(Aib^2, A5c^12)hGIP(1-30)-NH2], the inhibitory constant (Ki) was 0.98 nM.

As to YXEGTFXSDYSIAXDKIHQQDFVNWLLAQK (Aib at 2; A5c at 7; Nle at 14; C-terminal amide) [(Aib^2, A5c^7, Nle^14)hGIP(1-30)-NH2], the Ki is 4.9 nM.

For the molecule YXEGTFISXYSIAMDKIHQQDFVNWLLAQK (Aib at 2 and 9; C-terminal amide) [(Aib^2, 9)hGIP(1-30)-NH2], the Ki is 5.38 nM. For Y[Aib]EGTF[Aib]SDYSIAMDKIHQQDFVNWLLAQKGKKNDWKHNITQ-OH [(Aib^2, 7)hGIP(1-42)-OH] the value was 0.75 nM. For Y[Aib]EGTF[Ac6c]SDYSIAMDKIHQQDFVNWLLAQKGKKNC(Psu)WKHNITQ-OH [[Aib^2, A6c^7, Cys(Psu)^35]hGIP(1-42)-OH] the value was 288 nM; for Y[Aib]EGTF[Ac6c]SDYSIAMDKIHQQDFVNWLLAQKGKKNDC(Psu)KHNITQ-OH [[Aib^2, A6c^7, Cys(Psu)^36]hGIP(1-42)-OH], 635 nM; for Y[Aib]EGTF[Ac6c]SDYSIAMDKIHQQDFVNWLLAQKGKKNDWC(Psu)HNITQ-OH [[Aib^2, A6c^7, Cys(Psu)^37]hGIP(1-42)-OH], 22.7 nM. Consider Y[Aib]EGTF[Ac6c]SDYSIAMDKIHQQDFVNWLLAQKGKKC(Psu)DWKHNITQ-OH [[Aib^2, A6c^7, Cys(Psu)^34]hGIP(1-42)-OH], for which the Ki came to 356 nM. For Y[Aib]EGTF[Ac6c]SDYSIAMDKIHQQDFVNWLLAQKGC(Psu)KNDWKHNITQ-OH [[Aib^2, A6c^7, Cys(Psu)^32]hGIP(1-42)-OH] the value was 2.59 nM; for Y[Aib]EGTF[Ac6c]SDYSIAMDKIHQQDFVNWLLAQKC(Psu)KKNDWKHNITQ-OH [[Aib^2, A6c^7, Cys(Psu)^31]hGIP(1-42)-OH], 75.8 nM. For Y[Aib]EGTF[Ac6c]SDYSIAMDKIHQQDFVNWLLAQKGKC(Psu)NDWKHNITQ-OH [[Aib^2, A6c^7, Cys(Psu)^33]hGIP(1-42)-OH] the value was 1.51 nM; for YXEXTFISDYSIAMDKIHQQDFVNWLLAQK (Aib at 2 and 4; C-terminal amide) [(Aib^2, 4)hGIP(1-30)-NH2], 107 nM. As to YXEGTFISDYXIAXDKIHQQDFVNWLLAQK (Aib at 2 and 11; Nle at 14; C-terminal amide) [(Aib^2, 11, Nle^14)hGIP(1-30)-NH2], the Ki was determined as 1.39 nM. On to YXPGTFISDYXIAXDKIHQQDFVNWLLAQK (Aib at 2; A5c at 11; A6c at 14; C-terminal amide) [(Aib^2, Pro^3, A5c^11, A6c^14)hGIP(1-30)-NH2], for which the Ki is 34.1 nM.
